Among the data in patent US20120058906A1 (published 2012) are ECL signal values, retold here.

For assay [1], the target named is T1, rHuman Notch-1/Fc Chimera, CF (R&D Systems Cat#3647-TK) (human, UniProt P46531 19-526).
T1 construct: Bought Fc chimera; Fc part of the bought chimera not given
As to the kind of experiment: ECL (MSD Multi-Spot) binding, antigen spotted on plate; Fab 5 nM.

Assay [2] deals with T2, rHuman EGF R/Fc Chimera, CF (R&D Systems Cat#344-ER) (human, UniProt P00533 25-645).
T2 construct: Bought Fc chimera; also called epidermal growth factor receptor; Fc part of the bought chimera not given
The assay is described as above.

Assay [3] deals with T3, rHuman ErbB2/Fc Chimera, CF (R&D Systems Cat#1129-ER) (human, UniProt P04626 23-652).
T3 construct: Bought Fc chimera; also called human epidermal growth factor 2 receptor; HER2/neu; Fc part of the bought chimera not given
The assay is described as above.

Assay [4] deals with T4, rHuman Erythropoietin R/Fc Chimera, CF (R&D Systems Cat#963-ER) (human, UniProt P19235 25-250).
T4 construct: Bought Fc chimera; also called EPO R/Fc; erythropoietin receptor; Fc part of the bought chimera not given
T4 sequence: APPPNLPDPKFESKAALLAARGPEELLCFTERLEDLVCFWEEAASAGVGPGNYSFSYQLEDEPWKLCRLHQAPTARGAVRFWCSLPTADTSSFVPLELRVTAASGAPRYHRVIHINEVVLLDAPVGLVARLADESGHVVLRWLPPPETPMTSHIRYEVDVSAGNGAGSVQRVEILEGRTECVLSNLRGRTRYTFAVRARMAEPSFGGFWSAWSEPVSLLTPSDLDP
The description is as above.

Assay [5] has as its target T5, rHuman CD44/Fc Chimera, CF (R&D Systems Cat#3660-CD) (human, UniProt P16070 21-220).
T5 construct: Bought Fc chimera; Fc part of the bought chimera not given
The description is as above.

Assay [6] concerns the target T6, rHuman P-Cadherin/Fc Chimera, CF (R&D Systems Cat#861-PC) (human, UniProt P22223 108-654).
T6 construct: Bought Fc chimera; Fc part of the bought chimera not given
Described as above.

Assay [7] has as its target T7, Recombinant Human DLL4 (R&D Systems Cat#1506-D4/CF) (human, UniProt Q9NR61 27-524).
T7 construct: Bought recombinant protein; also called delta-like protein 4
The description is as above.

The target in assay [8] is T8, rHuman IGF-1 sR, CF (R&D Systems Cat#391-GR) (human, UniProt P08069 31-932).
T8 construct: Bought soluble receptor; also called insulin-like growth factor-1 soluble receptor; IGF-R1
The assay is described as above.

In assay [9] the target is T9, rHuman EGF R/Fc Chimera, CF (R&D Systems Cat#344-ER) (human, UniProt P00533 25-645).
T9 construct: Purchased Fc chimera; not shown: Fc portion of the purchased chimera
As to the kind of experiment: MSD ECL multi-spot plate, antigen immobilized; Fab 8 nM; blank spot 489.

Assay [10] deals with T10, Recombinant Human DLL4 (R&D Systems Cat#1506-D4/CF) (human, UniProt Q9NR61 27-524).
T10 construct: Purchased recombinant protein; also called delta-like protein 4
The description is as above.

Assay [11] deals with T11, rHuman IGF-1 sR (IGF-1 sR), CF (R&D Systems Cat#391-GR) (human, UniProt P08069 31-932).
T11 construct: Purchased soluble receptor; also called insulin-like growth factor-1 soluble receptor; IGF-R1
The description is as above.

Assay [12] has as its target T12, rHuman HGF R/c-MET/Fc Chimera, CF (R&D Systems Cat#358-MT/CF) (human, UniProt P08581 25-932).
T12 construct: Purchased Fc chimera; also called HGF R/Fc; not shown: Fc portion of the purchased chimera
Described as above.

Assay [13] concerns the target T13, rHuman ErbB2/Fc Chimera, CF (R&D Systems Cat#1129-ER) (human, UniProt P04626 23-652).
T13 construct: Purchased Fc chimera; also called HER2/neu; not shown: Fc portion of the purchased chimera
The description is as above.

The target in assay [14] is T14, rHuman P-Cadherin/Fc Chimera, CF (R&D Systems Cat#861-PC) (human, UniProt P22223 108-654).
T14 construct: Purchased Fc chimera; not shown: Fc portion of the purchased chimera
The description is as above.

In assay [15] the target is T15, rHuman CD44/Fc Chimera, CF (R&D Systems Cat#3660-CD) (human, UniProt P16070 21-220).
T15 construct: Purchased Fc chimera; not shown: Fc portion of the purchased chimera
The assay is described as above.

Assay [16] has as its target T16, rHuman Notch-1/Fc Chimera, CF (R&D Systems Cat#3647-TK) (human, UniProt P46531 19-526).
T16 construct: Purchased Fc chimera; not shown: Fc portion of the purchased chimera
The description is as above.

Assay [17] concerns the target T17, rHuman Erythropoietin R/Fc Chimera, CF (R&D Systems Cat#963-ER) (human, UniProt P19235 25-250).
T17 construct: Purchased Fc chimera; also called EPO R/Fc; Epo R; not shown: Fc portion of the purchased chimera
T17 sequence: T4 sequence
Described as above.

Assay [18] addresses T18, rHuman P-Cadherin/Fc Chimera, CF (R&D Systems Cat#861-PC) (human, UniProt P22223 108-654).
T18 construct: Bought reagent; also called CDH3; Fc part of the bought chimera not given
As to the kind of experiment: ECL (MSD multi-spot), antigen spotted on plate; Fab 705 nM; blank spot 483.

For assay [19], the target named is T19, rHuman Notch-1/Fc Chimera, CF (R&D Systems Cat#3647-TK) (human, UniProt P46531 19-526).
T19 construct: Bought reagent; Fc part of the bought chimera not given
Described as above.
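Also: blank spot per well as comparator with Hit at signal to blank ratio of 4 or more.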

B1: Fab VH1-46_IGHD6-6*01_IGHJ1*01_S102A_S103P_S104F_H111Y & L6_IGKJ1*01 (Fab, V domains shown)
VH: QVQLVQSGAEVKKPGASVKVSCKASGYTFTSYYMHWVRQAPGQGLEWMGIINPSGGSTSYAQKFQGRVTMTRDTSTSTVYMELSSLRSEDTAVYYCAREEYAPFSAEYFQYWGQGTLVTVSS
VL: not shown
notes: Fab made in E. coli; The heavy chain also carries the CH1 with Flag and His tags of Plasmid A, and the light chain the kappa constant region of Plasmid C
For the molecule B1, the ECL signal turned out to be 383 in [1]; 311 in assay [2]; 315 in assay [3]; 377 in assay [4]; 413 in assay [5]; 437 in [6]. Also, the ECL signal was 84900 in assay [7] and 320 in [8].

B2: Fab VH5-51_IGHD5-18*01>3_IGHJ4*01_G100K & V3-4_IGLJ1*01 (Fab, V domains shown)
VH: EVQLVQSGAEVKKPGESLKISCKGSGYSFTSYWIGWVRQMPGKGLEWMGIIYPGDSDTRYSPSFQGQVTISADKSISTAYLQWSSLKASDTAMYYCARRKYSYGYDYFDYWGQGTLVTVSS
VL: QTVVTQEPSFSVSPGGTVTLTCGLSSGSVSTSYYPSWYQQTPGQAPRTLIYSTNTRSSGVPDRFSGSILGNKAALTITGAQADDESDYYCVLYMGSGISYVFGTGTKVTVL
notes: It was expressed as a Fab: CH1 with tags from Plasmid A and lambda CL from Plasmid E; also called Fab No. 22
On to B2, for which the ECL signal in assay [9] was 1030 ECL signal; in assay [10], 11400 ECL signal; in assay [11] it was 1200 ECL signal; in assay [12] it was 1260 ECL signal; in assay [13] it was 1230 ECL signal; in assay [14], 788 ECL signal. In addition, the ECL signal in [15] is 853 ECL signal; in [16], 831 ECL signal; in assay [17] it was 881 ECL signal.

B3: Fab VH1-46_IGHD3-10*01_IGHJ4*01 & B3_IGKJ1*01 (Fab, V domains shown)
VH: QVQLVQSGAEVKKPGASVKVSCKASGYTFTSYYMHWVRQAPGQGLEWMGIINPSGGSTSYAQKFQGRVTMTRDTSTSTVYMELSSLRSEDTAVYYCAREYYYGSGSYYNDYFDYWGQGTLVTVSS
VL: not shown
notes: also called IGHV1-46*01
Take B3: the ECL signal was 827 in assay [18] and 958 in assay [19].
